± gives the uncertainty stated by the source.
Assay: self-splicing fitness, log relative to wild type (ln ratio); higher = more splicing; Tetrahymena group I intron in knt gene, E. coli kanamycin selection, DiMSum; sequences stand for … in CUCUCU…GGAGGGAAAAGUUAUCAGGCAUGCACCUGGUAGCUAGUCUUUAAACCAAUAGAUUGCAUCGGUUUAAAAGGCAAGACCGUCAAAUUGCGGGAAAGGGGUCAACAGCCGUUCAGUACCAAGUCUCAGGGGAAACUUUGAGAUGGCCUUGCAAAGGGUAUGGUAAUAAGCUGACGGACAUGGUCCUAACCACGCAGCCAAGUCCUAAGUCAACAGAUCUUCUGUUGAUAUGGAUGCAGUUCACAGACUAAAUGUCGGUCGGGGAAGAUGUAUUCUUCUCAUAAGAUAUAGUCGGACCUCUCCUUAAUGGGAGCUAGCGGAUGAAGUGAUGCAACACUGGAGCCGCUGGGAACUAAUUUGUAUGCGAAAGUAUAUUGAUUAGUUUUGGAGUACUCGUGGUCG
Method in brief: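 Library with all eight P1ex-region intron nucleotides randomised, intron inside the knt kanamycin-resistance gene on pET-22b(+), in E. coli BL21(DE3). Cells grew overnight at 37°C or 30°C on LB agar with or without 25 μg/mL kanamycin (plus 100 μg/mL carbenicillin, 50 μM IPTG, 0.2% rhamnose), in six replicate transformations. Pooled colonies were amplicon-sequenced on Illumina HiSeq 2500. DiMSum fitness is the error-weighted combination of wild-type-normalised replicate fold changes, kanamycin versus none.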

Sequence	self-splicing fitness (ln) (37 °C)	self-splicing fitness (ln) (30 °C)
UCUUAGCAAUAUUACGCUUA	-1.22 ± 0.28	–
UCUUAGCAAUAUUACGCUUU	-2.47 ± 0.32	–
UCUUAGCAAUAUUACGGAAU	-1.93 ± 0.16	-4.47 ± 0.26
UCUUAGCAAUAUUACGGCCU	–	-3.85 ± 0.46
UCUUAGCAAUAUUACGGCGG	-0.0592 ± 0.13	-0.64 ± 0.11
UCUUAGCAAUAUUACGGGGG	-2.51 ± 0.3	-2.89 ± 0.39
UCUUAGCAAUAUUACGGGGU	-2.39 ± 0.28	-3.44 ± 0.2
UCUUAGCAAUAUUACGGUCA	-0.613 ± 0.16	-1.71 ± 0.16
UCUUAGCAAUAUUACGGUCC	-2.74 ± 0.43	-3.99 ± 0.29
UCUUAGCAAUAUUACGGUGA	0.15 ± 0.1	-0.481 ± 0.1
UCUUAGCAAUAUUACGGUUC	-2.29 ± 0.23	-3.68 ± 0.28
UCUUAGCAAUAUUACGUACC	-1.53 ± 0.41	-1.26 ± 0.48
UCUUAGCAAUAUUACGUACU	-1.66 ± 0.18	-2.72 ± 0.17
UCUUAGCAAUAUUACGUCAC	-1.9 ± 0.33	–
UCUUAGCAAUAUUACGUCCG	-1.59 ± 0.23	-1.41 ± 0.19
UCUUAGCAAUAUUACGUCCU	-2.7 ± 0.38	-1.97 ± 0.28
UCUUAGCAAUAUUACGUUAG	-1.17 ± 0.21	-3.78 ± 0.4
UGAAAGCAAUAUUACGCCUG	-0.244 ± 0.12	-0.546 ± 0.11
UGAAAGCAAUAUUACGCGAA	-1.05 ± 0.2	-1.52 ± 0.17
UGAAAGCAAUAUUACGCGUU	-3.1 ± 0.29	-3.19 ± 0.19

Sequence	self-splicing fitness (ln) (37 °C)	self-splicing fitness (ln) (30 °C)
UGAAAGCAAUAUUACGCUGA	-3.15 ± 0.23	-2.09 ± 0.15
UGAAAGCAAUAUUACGCUUU	-2.53 ± 0.26	-4.77 ± 0.28
UGAAAGCAAUAUUACGGAGC	-2.81 ± 0.26	-3.81 ± 0.37
UGAAAGCAAUAUUACGGAUC	-2.83 ± 0.33	-3.19 ± 0.24
UGAAAGCAAUAUUACGGCCG	0.807 ± 0.15	-0.266 ± 0.091
UGAAAGCAAUAUUACGGGAG	-0.515 ± 0.12	-1.49 ± 0.12
UGAAAGCAAUAUUACGGGUA	-0.387 ± 0.097	-1.01 ± 0.1
UGAAAGCAAUAUUACGGUUG	-0.865 ± 0.091	-1.29 ± 0.079
UGAAAGCAAUAUUACGUAAA	-0.9 ± 0.098	-1.75 ± 0.082
UGAAAGCAAUAUUACGUAUU	-2.19 ± 0.12	-3.21 ± 0.13
UGAAAGCAAUAUUACGUCAC	-2.2 ± 0.27	-3.83 ± 0.47
UGAAAGCAAUAUUACGUCGU	-1.38 ± 0.12	-4.87 ± 0.36
UGAAAGCAAUAUUACGUCUG	0.773 ± 0.09	-0.102 ± 0.071
UGAAAGCAAUAUUACGUUUA	-0.471 ± 0.074	-0.985 ± 0.066
UGAAAGCAAUAUUACGUUUU	-3.41 ± 0.35	-3.67 ± 0.18
UGACAGCAAUAUUACGAAGU	-2.91 ± 0.28	-3.26 ± 0.2
UGACAGCAAUAUUACGACGG	-0.251 ± 0.11	-0.284 ± 0.11
UGACAGCAAUAUUACGAGCU	-1.53 ± 0.083	-2.11 ± 0.083
UGACAGCAAUAUUACGAUAG	-0.347 ± 0.076	-1.49 ± 0.07

From the supplement of paper PMC7877785
